In paper PMC5024103, “Catalytic Thr or Ser Residue Modulates Structural Switches in 2-Cys Peroxiredoxin by Distinct Mechanisms” (Scientific Reports, 2016):
Numbering of substitutions follows the chain as printed. Names may count otherwise. Each block holds one molecule with its values, some of them ahead of it.

Columns and labels:
[1] = target: Tsa1^WT (typical 2-Cys peroxiredoxin Tsa1 from S. cerevisiae) (S. cerevisiae) (UniProt P34760); test: SEC; analytical HPLC, Phenomenex BioSep-SEC-S3000, 50 uM enzyme, 100 mM Tris-HCl pH 7.4, 50 mM NaCl, 1 mL/min; samples reduced with 5 mM TCEP for 30 min at 25 C; dimers to decamer
[2] = target: Tsa1^T44A (S. cerevisiae) (UniProt P34760); test: as above
[3] = target: Tsa1^T44S (S. cerevisiae) (UniProt P34760); test: SEC; analytical HPLC, Phenomenex BioSep-SEC-S3000, 50 uM enzyme, 100 mM Tris-HCl pH 7.4, 50 mM NaCl, 1 mL/min; samples reduced with TCEP and then oxidised (disulfide) with 1.2 molar equivalents of H2O2 for 30 min at 25 C; dimers to decamer
[4] = target: Tsa1^T44S (S. cerevisiae) (UniProt P34760); test: SEC; analytical HPLC, Phenomenex BioSep-SEC-S3000, 50 uM enzyme, 100 mM Tris-HCl pH 7.4, 50 mM NaCl, 1 mL/min; samples reduced with 5 mM TCEP for 30 min at 25 C; dimers to decamer
[5] = substrate: CC(C)(OO)c1ccccc1; test: Trx system coupled assay, NADPH oxidation; assay type: biochemical, Saccharomyces cerevisiae; conditions: Trx1 2 μM, TrxR1 0.3 μM, NADPH 150 μM, HEPES pH 7.4, 30 °C
Text: Trx system coupled assay, NADPH oxidation on Tsa1 (Tsa1^WT) | In the case of cumene hydroperoxide (CHP) reduction, Tsa1^WT and Tsa1^T44S also presented similar enzymatic parameters

[6] = target: the molecule itself; test: SEC; analytical HPLC, Phenomenex BioSep-SEC-S3000, 50 uM enzyme, 100 mM Tris-HCl pH 7.4, 50 mM NaCl, 1 mL/min; samples reduced with 5 mM TCEP for 30 min at 25 C; dimers to decamer
[7] = target: the molecule itself; test: SEC; analytical HPLC, Phenomenex BioSep-SEC-S3000, 50 uM enzyme, 100 mM Tris-HCl pH 7.4, 50 mM NaCl, 1 mL/min; samples reduced with TCEP and then oxidised (disulfide) with 1.2 molar equivalents of H2O2 for 30 min at 25 C; dimers to decamer
[8] = substrate: CC(C)(OO)c1ccccc1; test: Trx system coupled assay, NADPH oxidation; assay type: biochemical, Saccharomyces cerevisiae; conditions: Trx1 2 μM, TrxR1 0.3 μM, NADPH 150 μM, HEPES pH 7.4, 30 °C; remark: listed apart in the source

- stoichiometry N [1]: 10
Molecule: Tsa1^WT (typical 2-Cys peroxiredoxin Tsa1 from S. cerevisiae) (from UniProt P34760 1-196) (enzyme)

- stoichiometry N [2]: 10
Molecule: Tsa1^T44A (from UniProt P34760 1-196) (enzyme)

- stoichiometry N [3]: 10
- stoichiometry N [4]: 10
Molecule: Tsa1^T44S (from UniProt P34760 1-196) (enzyme)

B1: Tsa1 (Tsa1^WT) (Saccharomyces cerevisiae S288C) (protein)
chain: MVAQVQKQAPTFKKTAVVDGVFDEVSLDKYKGKYVVLAFIPLAFTFVCPTEIIAFSEAAKKFEEQGAQVLFASTDSEYSLLAWTNIPRKEGGLGPINIPLLADTNHSLSRDYGVLIEEEGVALRGLFIIDPKGVIRHITINDLPVGRNVDEALRLVEAFQWTDKNGTVLPCNWTPGAATIKPTVEDSKEYFEAANK
notes: pET15b/Tsa1, His-tagged (HisTrap IMAC); homodimer ~48 kDa, decamer ~240 kDa
- Km [5]: 8.80 ± 0.05 µM
- kcat [5]: 0.7 ± 0.1 s⁻¹
- kcat/Km [5]: 82000 ± 11000 M⁻¹ s⁻¹

B2: Tsa1^S78D (enzyme)
chain: B1 chain with S79D
- stoichiometry N [6]: 2
- stoichiometry N [7]: 2

B3: Tsa1 (Tsa1^WT) (Saccharomyces cerevisiae S288C; T45A) (protein)
chain: B1 chain with T45A
notes: as for B1
- Km [8]: 300 µM

B4: Tsa1^Y77A (enzyme)
chain: B1 chain with Y78A
- stoichiometry N [6]: 2
- stoichiometry N [7]: 2

B5: Tsa1^T44V (enzyme)
chain: B1 chain with T45V
- stoichiometry N [7]: 2

B6: Tsa1 (Tsa1^WT) (Saccharomyces cerevisiae S288C; T45S) (protein)
chain: B1 chain with T45S
notes: as for B1
- Km [5]: 9.9 ± 1.2 µM
- kcat [5]: 0.7 ± 0.1 s⁻¹
- kcat/Km [5]: 75000 ± 9000 M⁻¹ s⁻¹

B7: Tsa2^WT (typical 2-Cys peroxiredoxin Tsa2 from S. cerevisiae) (enzyme)
chain: MVAEVQKQAPPFKKTAVVDGIFEEISLEKYKGKYVVLAFVPLAFSFVCPTEIVAFSDAAKKFEDQGAQVLFASTDSEYSLLAWTNLPRKDGGLGPVKVPLLADKNHSLSRDYGVLIEKEGIALRGLFIIDPKGIIRHITINDLSVGRNVNEALRLVEGFQWTDKNGTVLPCNWTPGAATIKPDVKDSKEYFKNANN
notes: Tsa2, typical 2-Cys peroxiredoxin of Saccharomyces cerevisiae (86% identity with Tsa1; Ser45 in place of Thr44 of Tsa1); Decamer in both redox states by SEC; source: E. coli BL21 (DE3), pPROEx/tsa2, purified (IMAC on HisTrap, PD10 desalting); not shown: His tag (from the vector pPROEx); copies: 10
- stoichiometry N [6]: 10
- stoichiometry N [7]: 10
